Test results reported in patent US20090252683A1 (Amgen, published 2009).
Blank lines part the entries; values can stand above or below the binder they belong to. No end group written: not given here. *: point of attachment. Biotin = O=C1N[C@H]2[C@H](CS[C@H]2CCCCC(=O)*)N1; linker = not defined here

Assays:
[1] = target: T1, human CAIX antigen on A549 cells (human, UniProt Q16790 38-459); experiment: FACS, A549 cells, 1 µg/ml purified protein (FIG. 27)
[2] = target: cynomolgus CD3 antigen on cynomolgus PBMC / macaque T cells (Macaca fascicularis (cynomolgus), UniProt Q95LI5 22-117; Q95LI7 23-110; Q95LI8 22-103); experiment: cell-based or functional assay
Sequence of cynomolgus CD3 antigen on cynomolgus PBMC / macaque T cells (Q95LI5 22-117, chain 1 of 3): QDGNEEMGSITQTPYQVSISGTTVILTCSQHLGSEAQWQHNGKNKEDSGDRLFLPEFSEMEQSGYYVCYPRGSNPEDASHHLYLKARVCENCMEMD
Sequence of cynomolgus CD3 antigen on cynomolgus PBMC / macaque T cells (Q95LI7 23-110, chain 2 of 3): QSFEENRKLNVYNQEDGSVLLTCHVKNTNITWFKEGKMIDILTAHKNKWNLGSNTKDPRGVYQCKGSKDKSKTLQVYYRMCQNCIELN
Sequence of cynomolgus CD3 antigen on cynomolgus PBMC / macaque T cells (Q95LI8 22-103, chain 3 of 3): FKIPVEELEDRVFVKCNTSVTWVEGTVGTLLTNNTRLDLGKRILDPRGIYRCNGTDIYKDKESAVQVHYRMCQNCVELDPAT

[3] = target: T2, human EpCAM antigen on Kato III cells or human EpCAM transfected CHO cells (human, UniProt P16422 24-265); experiment: cell-based or functional assay
T2 sequence: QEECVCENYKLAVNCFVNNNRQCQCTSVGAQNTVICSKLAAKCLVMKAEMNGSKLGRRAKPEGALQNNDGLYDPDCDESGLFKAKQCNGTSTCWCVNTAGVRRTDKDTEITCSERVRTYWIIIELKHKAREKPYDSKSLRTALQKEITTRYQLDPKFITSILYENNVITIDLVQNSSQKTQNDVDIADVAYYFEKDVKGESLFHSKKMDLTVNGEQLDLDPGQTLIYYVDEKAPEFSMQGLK

[4] = target: T1, human CAIX antigen on A549 cells; experiment: FACS, A549 cells, 1 µg/ml purified protein (FIG. 28)
EFSELEQSGYYVC-biotin = target: T3, EFSELEQSGYYVC-biotin (human); experiment: dot blot, 75 µg peptide on nitrocellulose, 3 µg/ml antibody
T3 construct: also called 13mer peptide of human CD3 epsilon, biotinylated C-terminally; peptide (2)
T3 peptide: EFSELEQSGYYVC-biotin
From the text: (§1) To verify the epitope of the human-like cross-species specific anti-CD3 antibody fragment described in Example 16 on human CD3 epsilon, the identified binding region as determined in Experiment 18 was further analyzed by a dot-blotting assay using a 13mer peptide covering the defined binding area of amino acid residues “FSELE” on human CD3 epsilon. This peptide comprises the amino acid sequence “[…]” (SEQ ID NO. 195) of human CD3 epsilon. The peptide exists in two forms and is either biotinylated N- or C-terminally. In case of the N-terminal labelling, a short linker connects the peptide with the biotin. As described in Example 18, the antibody fragment was converted to a murine IgG format with a murine gammal heavy chain comprising the VH region as shown in SEQ ID NO. 110 and a kappa light chain comprising the VL region as shown in SEQ ID NO. 168. The dot blotting was performed as follows. The Minifold I Spot Blot System from Schleicher & Schuell was used for immobilizing the peptides on a nitrocellulose membrane (Protran BA 85, 0.45 μm). 75 μg of each peptide in 100 μl TBS were filtered through the membrane using vacuum. After the filtration step the membrane was blocked with 1×TBS/1% (w/v) blocking reagent (BM Chemiluminescence Blotting Substrate (POD) of Roche Diagnostics GmbH) for 2 h. […]

[5] = target: T4, biotin-linker-EFSELEQSGYYVC (human, reading uncertain; also: short linker, not given here, printed as biotin-linker-EFSELEQSGYYVC); experiment: as above
T4 construct: also called 13mer peptide of human CD3 epsilon, biotinylated N-terminally; peptide (1)
T4 peptide: {Biotin-linker}-EFSELEQSGYYVC
From the text: as §1

[6] = target: T1, human CAIX antigen on A549 cells; experiment: FACS, A549 cells, 1 µg/ml purified protein (FIG. 26)
Procedure: FIG. 26: FACS binding analysis of cross-species specific bispecific single chain construct CAIX HL×SEQ ID NO. 194 to HPB-ALL (human CD3+), cynomolgus PBMC (cynomolgus CD3+), A549 (human CAIX+) and CYNOM-KI (cynomolgus CAIX+) cells, respectively. The FACS staining was performed as described in Example 23. The thick line represents cells incubated with 1 μg/ml purified monomeric protein that were subsequently incubated with the anti-his antibody and the PE labeled detection antibody. The thin histogram line reflects the negative control: cells only incubated with the anti-his antibody and the detection antibody.
In order to test the functionality of the cross-species specific bispecific antibody constructs with regard to binding capability to human and cynomolgus EGFR and CD3, respectively, a FACS analysis was performed. For this purpose the EGFR positive epidermoid carcinoma A431 cells (ATCC, CRL-1555) and CD3 positive human T cell leukemia cell line HPB-ALL (DSMZ, Braunschweig, ACC483) were used to check the binding to human antigens. […] The cells were washed twice in PBS and binding of the construct was detected with an unlabeled murine Penta His antibody (diluted 1:20 in 50 μl PBS with 2% FCS; Qiagen; Order No. 34660). After washing, bound anti His antibodies were detected with an Fc gamma-specific antibody (Dianova) conjugated to phycoerythrin, diluted 1:100 in 50 μl PBS with 2% FCS. […]

B1: CAIX HL × SEQ ID NO. 170 (bispecific antibody)
chain: DVKLVESGGGLVKLGGSLKLSCAASGFTFSNYYMSWVRQTPEKRLELVAAINSDGGITYYLDTVKGRFTISRDNAKNTLYLQMSSLKSEDTALFYCARHRSGYFSMDYWGQGTSVTVSSGGGGSGGGGSGGGGSDIVMTQSQRFMSTTVGDRVSITCKASQNVVSAVAWYQQKPGQSPKLLIYSASNRYTGVPDRFTGSGSGTDFTLTISNMQSEDLADFFCQQYSNYPWTFGGGTKLEIKSGGGGSEVQLVESGGGLVQPGGSLKLSCAASGFTFNTYAMNWVRQAPGKGLEWVARIRSKYNNYATYYADSVKDRFTISRDDSKNTAYLQMNNLKTEDTAVYYCVRHGNFGNSYVSWFAYWGQGTLVTVSSGGGGSGGGGSGGGGSQTVVTQEPSLTVSPGGTVTLTCRSSTGAVTTSNYANWVQQKPGQAPRGLIGGTNKRAPGTPARFSGSLLGGKAALTLSGVQPEDEAEYYCALWYSNLWVFGGGTKLTVLHHHHHH
notes: the appendix prints the entry with HHHHHH and then *VD at its end
binding result [1]: binds

B2: 5-10LH×SEQ ID NO. 14 bispecific single chain antibody (bispecific antibody)
chain: ELVMTQSPSSLTVTAGEKVTMSCKSSQSLLNSGNQKNYLTWYQQKPGQPPKLLIYWASTRESGVPDRFTGSGSGTDFTLTISSVQAEDLAVYYCQNDYSYPLTFGAGTKLEIKGGGGSGGGGSGGGGSEVQLLEQSGAELVRPGTSVKISCKASGYAFTNYWLGWVKQRPGHGLEWIGDIFPGSGNIHYNEKFKGKATLTADKSSSTAYMQLSSLTFEDSAVYFCARLRNWDEPMDYWGQGTTVTVSSGGGGSQVQLQQSGAELARPGASVKMSCKASGYTFTRSTMHWVKQRPGQGLEWIGYINPSSAYTNYNQKFKDKATLTADKSSSTAYMQLSSLTSEDSAVYYCASPQVHYDYNGFPYWGQGTLVTVSAGGGGSGGGGSGGGGSQVVLTQSPAIMSAFPGEKVTMTCSASSSVSYMNWYQQKSGTSPKRWIYDSSKLASGVPARFSGSGSGTSYSLTISSMETEDAATYYCQQWSRNPPTFGGGTKLQITHHHHHH
EC50 (half maximal killing), FACS-based cytotoxicity, Kato III target cells, cynomolgus PBMC effector cells [2]: 0.087 ng/mL
EC50 (half maximal killing), FACS-based cytotoxicity, Kato III target cells, human PBMC effector cells [3]: 0.0013 ng/mL

B3: CAIX LH × SEQ ID NO. 170 (bispecific antibody)
chain: DIVMTQSQRFMSTTVGDRVSITCKASQNVVSAVAWYQQKPGQSPKLLIYSASNRYTGVPDRFTGSGSGTDFTLTISNMQSEDLADFFCQQYSNYPWTFGGGTKLEIKGGGGSGGGGSGGGGSDVKLVESGGGLVKLGGSLKLSCAASGFTFSNYYMSWVRQTPEKRLELVAAINSDGGITYYLDTVKGRFTISRDNAKNTLYLQMSSLKSEDTALFYCARHRSGYFSMDYWGQGTSVTVSSSGGGGSEVQLVESGGGLVQPGGSLKLSCAASGFTFNTYAMNWVRQAPGKGLEWVARIRSKYNNYATYYADSVKDRFTISRDDSKNTAYLQMNNLKTEDTAVYYCVRHGNFGNSYVSWFAYWGQGTLVTVSSGGGGSGGGGSGGGGSQTVVTQEPSLTVSPGGTVTLTCRSSTGAVTTSNYANWVQQKPGQAPRGLIGGTNKRAPGTPARFSGSLLGGKAALTLSGVQPEDEAEYYCALWYSNLWVFGGGTKLTVLHHHHHH
notes: as for B1
binding result [4]: binds

B5: 5-10LH×SEQ ID NO. 12 bispecific single chain antibody (bispecific antibody)
chain: ELVMTQSPSSLTVTAGEKVTMSCKSSQSLLNSGNQKNYLTWYQQKPGQPPKLLIYWASTRESGVPDRFTGSGSGTDFTLTISSVQAEDLAVYYCQNDYSYPLTFGAGTKLEIKGGGGSGGGGSGGGGSEVQLLEQSGAELVRPGTSVKISCKASGYAFTNYWLGWVKQRPGHGLEWIGDIFPGSGNIHYNEKFKGKATLTADKSSSTAYMQLSSLTFEDSAVYFCARLRNWDEPMDYWGQGTTVTVSSGGGGSQAVVTQESALTTSPGETVTLTCRSSTGAVTTSNYANWVQEKPDHLFTGLIGGTNKRAPGVPARFSGSLIGDKAALTITGAQTEDEAIYFCALWYSNLWVFGGGTKLTVLGGGGSGGGGSGGGGSEVKLLESGGGLVQPKGSLKLSCAASGFTFNTYAMNWVRQAPGKGLEWVARIRSKYNNYATYYADSVKDRFTISRDDSQSILYLQMNNLKTEDTAMYYCVRHGNFGNSYVSWFAYWGQGTLVTVSAHHHHHH
EC50 (half maximal killing), FACS-based cytotoxicity, Kato III target cells, cynomolgus PBMC effector cells [2]: 0.069 ng/mL
EC50 (half maximal killing), FACS-based cytotoxicity, Kato III target cells, human PBMC effector cells [3]: 0.0015 ng/mL

Now from value to binder:

binding result (EFSELEQSGYYVC-biotin): binds
binding result [5]: binds
B4: cross-species specific anti-CD3 antibody (murine IgG1 comprising the VH chain shown in SEQ ID NO. 110 and the VL chain shown in SEQ ID NO. 168) (antibody, V domains shown)
VH: EVQLLESGGGLVQPGGSLKLSCAASGFTFNTYAMNWVRQAPGKGLEWVARIRSKYNNYATYYADSVKDRFTISRDDSKNTAYLQMNNLKTEDTAVYYCVRHGNFGNSYVSWFAYWGQGTLVTVSS
VL: ELVVTQEPSLTVSPGGTVTLTCRSSTGAVTTSNYANWVQQKPGQAPRGLIGGTNKRAPGTPARFSGSLLGGKAALTLSGVQPEDEAEYYCALWYSNLWVFGGGTKLTVL
notes: full IgG with a murine gamma1 heavy chain and a kappa light chain; also called human-like cross-species specific anti-CD3 antibody; cross-species specific anti-CD3 IgG1 antibody

binding result [6]: binds
B6: CAIX HL × SEQ ID NO. 194 (bispecific antibody)
chain: DVKLVESGGGLVKLGGSLKLSCAASGFTFSNYYMSWVRQTPEKRLELVAAINSDGGITYYLDTVKGRFTISRDNAKNTLYLQMSSLKSEDTALFYCARHRSGYFSMDYWGQGTSVTVSSGGGGSGGGGSGGGGSDIVMTQSQRFMSTTVGDRVSITCKASQNVVSAVAWYQQKPGQSPKLLIYSASNRYTGVPDRFTGSGSGTDFTLTISNMQSEDLADFFCQQYSNYPWTFGGGTKLEIKSGGGGSQTVVTQEPSLTVSPGGTVTLTCRSSTGAVTTSNYANWVQQKPGQAPRGLIGGTNKRAPGTPARFSGSLLGGKAALTLSGVQPEDEAEYYCALWYSNLWVFGGGTKLTVLGGGGSGGGGSGGGGSEVQLVESGGGLVQPGGSLKLSCAASGFTFNTYAMNWVRQAPGKGLEWVARIRSKYNNYATYYADSVKDRFTISRDDSKNTAYLQMNNLKTEDTAVYYCVRHGNFGNSYVSWFAYWGQGTLVTVSSHHHHHH
notes: as for B1
